Reference: publication PMC10870172

What was measured:
Assay in all cases: other fluorescence titration; single-molecule FRET on freely diffusing ClpB hexamers (1:100 labeled:unlabeled, ~50 pM labeled, ~5 nM total) with increasing concentrations of unlabeled κ-casein; ratio of H2MM-derived state 1 population with and without κ-casein fitted to a simple binding isotherm; 25 mM HEPES, 25 mM KCl, 10 mM MgCl2, 2 mM ATP, 0.01% Tween 20, pH 8, 22°C
[1] = molecular target: ClpB PL2 construct A281C-S359C (wt), hexamer with one labeled protomer (Thermus thermophilus) (UniProt Q9RA63)
[2] = molecular target: ClpB PL2 BB construct A281C-S359C with E271A/E668A, hexamer with one labeled protomer (Thermus thermophilus) (UniProt Q9RA63)
[3] = molecular target: ClpB PL3 construct S359C-Y646C (wt), hexamer with one labeled protomer (Thermus thermophilus) (UniProt Q9RA63)
[4] = molecular target: ClpB PL1 construct S236C-S359C (wt), hexamer with one labeled protomer (Thermus thermophilus) (UniProt Q9RA63)

Kd [1]: 11.3 µM
Kd [2]: 0.3 µM
Kd [3]: 0.9 µM
Kd [4]: 2.9 µM
Substance: κ-casein (from UniProt P02668 22-190) (natural protein)
